{"source": "patent US11820827B2", "about": "“Methods of treating myelodysplastic syndrome and acute myeloid leukemia with nonfucosylated anti-CD70 antibodies” (Seagen Inc., priority 2019, dated 2023)", "key": {"[1]": {"test_system": "MOLM-13 CD70+ AML cell line", "test": "ADCC assay with NK effector cells, MOLM-13", "assay_type": "cell-based, human", "conditions": "effector-to-target ratio 10:1, 4 h", "description": "ADCC activity was evaluated using two CD70+AML cell lines as an ADCC target (FIGS. 3A and 3B). The AML cell lines, MOLM-13 (FIG. 3A) and NOMO-1 (FIG. 3B), were labeled and mixed with titrations of test antibodies or isotype control. Effector cells were isolated from cryopreserved normal donor PBMC using the EasySep Human NK Cell Enrichment Kit (Stem Cell Technologies). Effector cells were added at an effector-to-target cell ratio of 10:1 with […]. After a 4-h incubation, the percent specific cell lysis was calculated.\nAML cell lines were grown in appropriate growth medium while incubating at 37° C. in 5% CO2. Suspended cells were counted using ViCell XR cell counter. The required volume of cells was mixed with fresh growth medium and plated at seeding densities of 0.5 M/mL.\nThe following protocol was used to assess ADCC activity: • 1. Two vials of huPBMCs were thawed in the 37° C. waterbath and resuspended in 1% FBS-RPMI media. Cells were spun down and then NK cells were isolated using the EasySep human NK cell enrichment kit following the manufacturer's protocol. • 2. […] Absorbance per well was measured using the SpectraMax 190 plate reader at 490 nm and the acquired values were converted to text file and exported to Excel and into GraphPad Prism for further data analysis. • 9. […]"}, "[2]": {"test_system": "MV-411 acute myeloid leukemia model", "test": "Tumor growth in the MV-411 acute myeloid leukemia xenograft model (Example 7)", "assay_type": "in vivo, SCID mice", "conditions": "for tumor volume, individual animals: h1F6SEA 10 mg/kg Q4dx4"}, "[3]": {"target": "T1, high affinity human FcγRIIIa receptor (158V) (Homo sapiens, UniProt P08637, F176V)", "T1 construct": "expressed in transfected cells; host or cells: CHO", "T1 sequence (P08637 17-254 F176V)": "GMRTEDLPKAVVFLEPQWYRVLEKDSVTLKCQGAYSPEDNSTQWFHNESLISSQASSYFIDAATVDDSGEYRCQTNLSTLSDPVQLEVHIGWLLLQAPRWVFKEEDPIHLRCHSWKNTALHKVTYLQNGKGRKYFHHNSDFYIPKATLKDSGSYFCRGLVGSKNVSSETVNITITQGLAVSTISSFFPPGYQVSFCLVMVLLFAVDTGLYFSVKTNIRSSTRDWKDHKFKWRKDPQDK", "test": "CHO-FcγRIIIa binding assay by flow cytometry (human receptor)", "conditions": "compared with SGN-70", "description": "(§1) While BLI methodology is used to assess receptor affinity by monitoring binding kinetics, it is primarily set to monitor monovalent binding. To add to BLI data sets, flow cytometry was also performed (FIGS. 2A and 2B).\n(§2) The CHO-FcγRIIIa binding assay was conducted as follows: • 1. Thaw cells: Cells were thawed on 11 Jun. 2019, and cultured in culture medium for 1 week to recover from freeze-thaw.\n(§3) • 2. Wash: 60 million cells were washed 1× in PBS in 50-mL tubes. Cells were counted again and resuspended at 2.2×10^6/mL. Then 0.1 mL was pipetted per well • 3. Make 10× dilutions of antibody: The 10× dilutions were prepared (3 mg/mL, 1 mg/mL, 0.3 mg/mL, 0.1 mg/mL, 0.03 mg/mL, 0.01 mg/mL, 0.003 mg/mL, 0.001 mg/mL, and 0.0003 mg/mL in the dilution plate).\n(§4) • 4. Aspirate: Wash was aspirated in wells and 100 μL of the corresponding antibody dilutions was pipetted with a multichannel pipet. The corresponding concentrations were 300, 100, 30, 10, 3, 1, […] μg/mL in triplicate. The concentrations were decreased vertically down the 96-well round bottom plate. • 5. […] Analyze samples: Samples were analyzed by flow cytometry in high throughput sampler (HTS) mode on the Attune. Median fluorescence intensity (MFI) was graphed (geomean), and equilibrium dissociation constant (KD) for each was calculated in PRIZM"}, "[4]": {"target": "T2, cynomolgus FcγRIIIa receptor (Macaca fascicularis, UniProt Q8SPW2)", "T2 construct": "expressed in transfected cells; host or cells: CHO", "T2 sequence (Q8SPW2 17-254)": "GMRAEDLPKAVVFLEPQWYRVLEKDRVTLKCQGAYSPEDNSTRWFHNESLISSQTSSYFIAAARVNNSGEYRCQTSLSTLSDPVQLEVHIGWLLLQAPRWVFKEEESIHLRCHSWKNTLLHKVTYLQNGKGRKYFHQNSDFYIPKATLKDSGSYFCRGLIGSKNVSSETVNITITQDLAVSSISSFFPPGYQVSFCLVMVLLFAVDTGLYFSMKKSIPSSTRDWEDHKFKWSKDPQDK", "test": "CHO-FcγRIIIa binding assay by flow cytometry (cynomolgus receptor)", "conditions": "compared with SGN-70", "description": "as §1, §2, §3, §4"}, "[5]": {"test_system": "FcγRIIIa (F/F low affinity and V/V high affinity alleles)", "test": "BLI binding affinity to FcγRIIIa (low and high affinity alleles)", "set-up": "species or system human", "conditions": "compared with SGN-70", "excerpt": "Parameters are listed Table 1. Biotinylated avi-tagged human FcγR-monomeric Fc N297A LALA-PG and Fc receptor neonatal (FcRN) monomeric Fc N297A IHH fusion proteins (designed and expressed at Seattle Genetics) were loaded onto high precision streptavidin biosensors (ForteBio) to responses between 0.3 to 1 nm following a 100 second sensor check in Buffer A (0.1% bovine serum albumin [BSA], 0.02% Tween20, 1× phosphate-buffered saline [PBS] pH 7.4). After another baseline measurement, titrated antibodies were associated for 600, 10, 100, 50, and 10 seconds and dissociated for 1000, 50, 100, 500, and 50 seconds in Buffer B (1% casein, 0.2% Tween20, 1×PBS pH 7.4) for FcγRI, IIa, IIIa, FcRN pH 6, and FcRN pH 7.4, respectively. Prior to analysis, the references were subtracted in each assay. All the sensorgrams were processed with a Y-axis alignment at the start of association and an inter-step dissociation correction. A 1:1 Langmuir isotherm global fit model was used to fit the curves."}}, "note": "Several values for one entry are separate records, joined by “and”; a condition that tells them apart may be missing. Identical values can stand only once.", "data": [{"molecule": "SEA-CD70: humanized, nonfucosylated monoclonal IgG1 antibody targeting CD70 (nonfucosylated h1F6) (antibody, chains of the INN, looked up, V domains shown, nonfucosylated) VH: QVQLVQSGAEVKKPGASVKVSCKASGYTFTNYGMNWVRQAPGQGLKWMGWINTYTGEPTYADAFKGRVTMTRDTSISTAYMELSRLRSDDTAVYYCARDYGDYGMDYWGQGTTVTVSS VL: DIVMTQSPDSLAVSLGERATINCRASKSVSTSGYSFMHWYQQKPGQPPKLLIYLASNLESGVPDRFSGSGSGTDFTLTISSLQAEDVAVYYCQHSREVPWTFGQGTKVEIK", "values": [{"measurement": "lysis of target cells in ADCC assay", "setting": "[1]", "value": "induced lysis of two CD70 positive AML cell lines in a dose-dependent fashion"}, {"measurement": "delay in tumor growth", "setting": "[2]; from time to 10× fold change versus untreated, h1F6SEA 10 mg/kg, azacitidine 5 mg/kg", "value": 18, "unit": "%"}, {"measurement": "tumor volume, individual animals", "setting": "[2]; day 9 post implant", "value": "51.0 mm^3 and 59.2 mm^3 and 59.0 mm^3 and 52.1 mm^3 and 54.1 mm^3 and 58.6 mm^3"}, {"measurement": "tumor volume, individual animals", "setting": "[2]; day 13 post implant", "value": "47.1 mm^3 and 56.4 mm^3 and 72.6 mm^3 and 48.7 mm^3 and 68.7 mm^3 and 59.9 mm^3"}, {"measurement": "tumor volume, individual animals", "setting": "[2]; day 16 post implant", "value": "65.3 mm^3 and 60.4 mm^3 and 98.2 mm^3 and 90.8 mm^3 and 83.5 mm^3 and 67.6 mm^3"}, {"measurement": "tumor volume, individual animals", "setting": "[2]; day 20 post implant", "value": "63.1 mm^3 and 42.0 mm^3 and 165.9 mm^3 and 151.0 mm^3 and 142.8 mm^3 and 93.1 mm^3"}, {"measurement": "tumor volume, individual animals", "setting": "[2]; day 24 post implant", "value": "161.4 mm^3 and 70.9 mm^3 and 266.6 mm^3 and 336.7 mm^3 and 299.1 mm^3 and 165.4 mm^3"}, {"measurement": "tumor volume, individual animals", "setting": "[2]; day 27 post implant", "value": "254.6 mm^3 and 0.0 mm^3 and 392.1 mm^3 and 447.0 mm^3 and 337.6 mm^3 and 231.0 mm^3"}, {"measurement": "tumor volume, individual animals", "setting": "[2]; day 30 post implant", "value": "352.6 mm^3 and 0.0 mm^3 and 661.5 mm^3 and 831.7 mm^3 and 494.8 mm^3 and 365.1 mm^3"}, {"measurement": "tumor volume, individual animals", "setting": "[2]; day 34 post implant", "value": "666.1 mm^3 and 15.4 mm^3 and 998.9 mm^3 and 1042.3 mm^3 and 655.6 mm^3 and 531.6 mm^3"}, {"measurement": "tumor volume, individual animals", "setting": "[2]; day 38 post implant", "value": "988.1 mm^3 and 63.1 mm^3 and 1005.8 mm^3 and 751.7 mm^3"}, {"measurement": "tumor volume, individual animals", "setting": "[2]; day 41 post implant", "value": "66.6 mm^3 and 1024.7 mm^3"}, {"measurement": "tumor growth delay in one mouse of the group", "setting": "[2]; h1F6SEA 10 mg/kg, extended the length of the study", "value": "very robust tumor growth delay"}, {"measurement": "binding affinity to human FcγRIIIa on CHO cells", "setting": "[3]", "value": "bound with higher affinity than SGN-70"}, {"measurement": "binding affinity to cynomolgus FcγRIIIa on CHO cells", "setting": "[4]", "value": "bound with higher affinity than SGN-70"}, {"measurement": "binding affinity to FcγRIIIA", "setting": "[5]", "value": "much higher binding affinity"}]}]}
